Patent publication US20120316071A1 (published 2012)
Where a chain is given by its changes, count along the chain named. Numbers in names are those of the source.

B1: Fab VH1-46_IGHD6-6*01_IGHJ1*01 S102A/S103P/S104F/H111F F29A & L6_IGKJ1*01 (Fab, V domains shown)
VH: QVQLVQSGAEVKKPGASVKVSCKASGYTATSYYMHWVRQAPGQGLEWMGIINPSGGSTSYAQKFQGRVTMTRDTSTSTVYMELSSLRSEDTAVYYCAREEYAPFSAEYFQFWGQGTLVTVSS
VL: not shown
notes: Tested as Fab (CH1 with His6/Flag tags; kappa CL), expressed in E. coli; also called APFF F29A
B2: Fab VH1-46_IGHD6-6*01_IGHJ1*01 S102A/S103P/S104F/H111F S31A & L6_IGKJ1*01 (Fab, V domains shown)
VH: B1 VH with A29F, S31A
VL: not shown
notes: Tested as Fab (CH1 with His6/Flag tags; kappa CL), expressed in E. coli; also called APFF S31A
B3: Fab VH1-46_IGHD6-6*01_IGHJ1*01 S102A/S103P/S104F/H111F T28A & L6_IGKJ1*01 (Fab, V domains shown)
VH: B1 VH with T28A, A29F
VL: not shown
notes: Tested as Fab (CH1 with His6/Flag tags; kappa CL), expressed in E. coli; also called APFF T28A
B4: Fab VH1-46_IGHD6-6*01_IGHJ1*01 S102A/S103P/S104F/H111F T30A & L6_IGKJ1*01 (Fab, V domains shown)
VH: B1 VH with A29F, T30A
VL: not shown
notes: Tested as Fab (CH1 with His6/Flag tags; kappa CL), expressed in E. coli; also called APFF T30A
B5: Fab VH1-46_IGHD6-6*01_IGHJ1*01 S102A/S103P/S104F/H111F Y33A & L6_IGKJ1*01 (Fab, V domains shown)
VH: B1 VH with A29F, Y33A
VL: not shown
notes: Tested as Fab (CH1 with His6/Flag tags; kappa CL), expressed in E. coli; also called APFF Y33A
B6: Fab VH1-46_IGHD6-6*01_IGHJ1*01 S102A/S103P/S104F/H111F (APFF) & L6_IGKJ1*01 (Fab, V domains shown)
VH: B1 VH with A29F
VL: not shown
notes: Tested as Fab expressed in E. coli; Heavy chain from Plasmid A (CH1, His6 and Flag tags), kappa light chain from Plasmid C (CL); also called H:APFF & L:wt
B7: Fab VH1-46_IGHD6-6*01_IGHJ1*01 S102A/S103P/S104F/H111F F29A & L6_IGKJ1*01 (Fab, V domains shown)
VH: B1 VH
VL: not shown
notes: Tested as a Fab made in E. coli; The heavy chain vector (Plasmid A) adds CH1 with His6 and Flag tags; The light chain vector (Plasmid C) adds kappa CL; also called APFF F29A
B8: Fab VH3-23_IGHD2-21*01>3_IGHJ6*01 H100E/S108P/Y113G/Y111I & V2-13_IGLJ2*01 (Fab, V domains shown)
VH: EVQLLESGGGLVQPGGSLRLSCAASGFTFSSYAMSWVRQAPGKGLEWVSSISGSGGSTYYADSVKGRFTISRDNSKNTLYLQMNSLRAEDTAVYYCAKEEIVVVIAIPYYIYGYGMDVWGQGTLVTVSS
VL: SSELTQDPAVSVALGQTVRITCQGDSLRSYYASWYQQKPGQAPVLVIYGKNNRPSGIPDRFSGSSSGNTASLTITGAQAEDEADYYCNSRDSSGNHLVVFGGGTKLTVL
notes: Fab made in E. coli: VH joined to CH1 (with His and Flag tags, plasmid A) and VL to lambda CL (plasmid E); also called EPG Y111I
B9: Fab VH3-23_IGHD2-21*01>3_IGHJ6*01 H100E/S108P/Y113G/Y110R & V2-13_IGLJ2*01 (Fab, V domains shown)
VH: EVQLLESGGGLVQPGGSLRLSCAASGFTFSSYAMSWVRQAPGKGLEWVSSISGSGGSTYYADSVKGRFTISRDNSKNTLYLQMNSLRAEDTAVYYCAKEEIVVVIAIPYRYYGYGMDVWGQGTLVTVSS
VL: B8 VL
notes: Fab made in E. coli: VH joined to CH1 (with His and Flag tags, plasmid A) and VL to lambda CL (plasmid E); also called EPG Y110R
B10: Fab VH3-23_IGHD2-21*01>3_IGHJ6*01 H100E/S108P/Y113G/Y111N & V2-13_IGLJ2*01 (Fab, V domains shown)
VH: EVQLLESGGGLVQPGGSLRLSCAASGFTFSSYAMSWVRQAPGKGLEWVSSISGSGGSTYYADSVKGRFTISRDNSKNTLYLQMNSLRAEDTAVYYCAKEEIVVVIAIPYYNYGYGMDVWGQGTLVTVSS
VL: B8 VL
notes: Fab made in E. coli: VH joined to CH1 (with His and Flag tags, plasmid A) and VL to lambda CL (plasmid E); also called EPG Y111N
B11: Fab VH3-23_IGHD2-21*01>3_IGHJ6*01 H100E/S108P/Y113G/Y111S & V2-13_IGLJ2*01 (Fab, V domains shown)
VH: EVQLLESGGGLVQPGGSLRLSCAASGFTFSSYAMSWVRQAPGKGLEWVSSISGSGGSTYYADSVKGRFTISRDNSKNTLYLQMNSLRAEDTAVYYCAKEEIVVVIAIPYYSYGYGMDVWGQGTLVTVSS
VL: B8 VL
notes: Fab made in E. coli: VH joined to CH1 (with His and Flag tags, plasmid A) and VL to lambda CL (plasmid E); also called EPG Y111S
B12: Fab VH3-23_IGHD2-21*01>3_IGHJ6*01 H100E/S108P/Y113G/Y111T & V2-13_IGLJ2*01 (Fab, V domains shown)
VH: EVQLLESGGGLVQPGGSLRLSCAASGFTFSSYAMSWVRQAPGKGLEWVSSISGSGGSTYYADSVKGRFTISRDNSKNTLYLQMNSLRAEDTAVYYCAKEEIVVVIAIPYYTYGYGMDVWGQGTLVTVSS
VL: B8 VL
notes: Fab made in E. coli: VH joined to CH1 (with His and Flag tags, plasmid A) and VL to lambda CL (plasmid E); also called EPG Y111T

Legend:
[1] = target: T1, Recombinant Human DLL4 (R&D Systems Cat#1506-D4/CF) (human, UniProt Q9NR61 27-524); assay: ECL Multispot (MSD), DLL4 spotted, 10 nM Fab
T1 construct: Bought recombinant protein; also called delta-like protein 4; rHuman DLL4

[2] = target: T1, Recombinant Human DLL4 (R&D Systems …); assay: ELISA, DLL4 coated, 100 nM Fab, absorbance at 450 nm minus noise
[3] = target: T2, Recombinant Human DLL4 (R&D Systems Cat#1506-D4/CF) (human, UniProt Q9NR61 27-524); assay: ECL (MSD) binding assay, immobilised DLL4, repeat experiment
T2 construct: Bought recombinant protein; also called delta-like protein 4; rHuman DLL4

[4] = target: T3, rHuman IGF-1 sR (insulin-like growth factor-1 soluble receptor), CF (R&D Systems Cat#391-GR) (human, UniProt P08069 31-932); assay: ECL Multispot (MSD) assay, antigen spotted on plate, 10 nM Fab;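 also: purified Fab bound to antigen spots for 1 h at 20 °C, then TAG detection antibody, electrochemiluminescence compared with each well's blank, ratio of 4 or more marks a hit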
T3 construct: Bought recombinant soluble receptor

[5] = target: T4, rHuman P-Cadherin/Fc Chimera, CF (R&D Systems Cat#861-PC) (human, UniProt P22223 108-654); assay: as above
T4 construct: Bought recombinant protein

[6] = target: T2, Recombinant Human DLL4 (R&D Systems …); assay: as above
[7] = target: T5, rHuman ErbB2/Fc Chimera, CF (R&D Systems Cat#1129-ER) (human, UniProt P04626 23-652); assay: as above
T5 construct: Bought recombinant protein

[8] = target: T6, rHuman EGF R/Fc Chimera, CF (R&D Systems Cat#344-ER) (human, UniProt P00533 25-645); assay: as above
T6 construct: Bought recombinant protein

[9] = target: T7, rHuman HGF R/c-MET/Fc Chimera, CF (R&D Systems Cat#358-MT/CF) (human, UniProt P08581 25-932); assay: as above
T7 construct: Bought recombinant protein; also called HGF R/Fc

[10] = target: T2, Recombinant Human DLL4 (R&D Systems …); assay: ECL (MSD) binding assay, DLL4 signal divided by blank, repeat experiment
[11] = target: T8, rHuman IGF-1 sR, CF (R&D Systems Cat#391-GR) (human, UniProt P08069 31-932); assay: ECL multispot (MSD) binding assay; antigen spotted on plate, Fab in solution, Ru-labelled anti-kappa detection;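 also: purified Fab in 1% BSA TBST incubated 1 h at 20 °C with shaking, signal compared with each well's blank, signal/blank ratio of 4 or above counted as binder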
T8 construct: Bought from R&D Systems as a soluble receptor; also called insulin-like growth factor-1 soluble receptor

[12] = target: T9, rHuman P-Cadherin/Fc Chimera, CF (R&D Systems Cat#861-PC) (human, UniProt P22223 108-654); assay: as above
T9 construct: Bought from R&D Systems; Fc part of the bought chimera not given

[13] = target: T10, Recombinant Human DLL4 (R&D Systems Cat#1506-D4/CF) (human, UniProt Q9NR61 27-524); assay: as above
T10 construct: Bought from R&D Systems; also called delta-like protein 4; rHuman DLL4

[14] = target: T11, rHuman EGF R/Fc Chimera, CF (R&D Systems Cat#344-ER) (human, UniProt P00533 25-645); assay: as above
T11 construct: Bought from R&D Systems; also called epidermal growth factor receptor; Fc part of the bought chimera not given

[15] = target: T12, rHuman HGF R/c-MET/Fc Chimera, CF (R&D Systems Cat#358-MT/CF) (human, UniProt P08581 25-932); assay: as above
T12 construct: Bought from R&D Systems; also called HGF R/Fc; hepatocyte growth factor receptor; Fc part of the bought chimera not given

[16] = target: T13, rHuman ErbB2/Fc Chimera, CF (R&D Systems Cat#1129-ER) (human, UniProt P04626 23-652); assay: ECL (MSD) multispot binding assay, antigen spotted on plate, 20 nM Fab;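 also: purified Fab incubated 1 h at 20 °C on antigen-spotted plate, bound Fab revealed with TAG detection antibody, ECL read, antigen signal divided by same-well blank, ratio ≥4 counted as hit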
T13 construct: Bought recombinant protein; also called human epidermal growth factor 2 receptor; Fc part of the bought chimera not given

[17] = target: T14, rHuman EGF R/Fc Chimera, CF (R&D Systems Cat#344-ER) (human, UniProt P00533 25-645); assay: as above
T14 construct: Bought recombinant protein; also called epidermal growth factor receptor; Fc part of the bought chimera not given

[18] = target: T15, rHuman Notch-1/Fc Chimera, CF (R&D Systems Cat#3647-TK) (human, UniProt P46531 19-526); assay: as above
T15 construct: Bought recombinant protein; Fc part of the bought chimera not given

[19] = target: T16, rHuman CD44/Fc Chimera, CF (R&D Systems Cat#3660-CD) (human, UniProt P16070 21-220); assay: as above
T16 construct: Bought recombinant protein; Fc part of the bought chimera not given

[20] = target: T17, rHuman IGF-1 sR, (IGF-1 sR), CF (R&D Systems Cat#391-GR) (human, UniProt P08069 31-932); assay: as above
T17 construct: Bought recombinant soluble receptor; also called insulin-like growth factor-1 soluble receptor

[21] = target: T18, rHuman P-Cadherin/Fc Chimera, CF (R&D Systems Cat#861-PC) (human, UniProt P22223 108-654); assay: as above
T18 construct: Bought recombinant protein; Fc part of the bought chimera not given

[22] = target: T19, rHuman Erythropoietin R/Fc Chimera, CF (R&D Systems Cat#963-ER) (human, UniProt P19235 25-250); assay: as above
T19 construct: Bought recombinant protein; also called EPO R; EPO R/Fc; Fc part of the bought chimera not given
T19 sequence (looked up): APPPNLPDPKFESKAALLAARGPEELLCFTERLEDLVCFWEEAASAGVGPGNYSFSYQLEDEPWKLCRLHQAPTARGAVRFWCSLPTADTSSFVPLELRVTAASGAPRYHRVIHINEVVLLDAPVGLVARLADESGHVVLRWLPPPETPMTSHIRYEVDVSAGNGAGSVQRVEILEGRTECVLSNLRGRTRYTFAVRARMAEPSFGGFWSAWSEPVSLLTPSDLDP

[23] = target: T20, Recombinant Human DLL4 (R&D Systems Cat#1506-D4/CF) (human, UniProt Q9NR61 27-524); assay: as above
T20 construct: Bought recombinant protein; also called delta-like protein 4; rHuman DLL4

Row | Binder | ECL Signal/Noise [1] | ELISA (Signal-Noise) [2] | ECL signal/blank ratio [16] | ECL signal/blank ratio [17] | ECL signal/blank ratio [18] | ECL signal/blank ratio [19] | ECL signal/blank ratio [20] | ECL signal/blank ratio [21] | ECL signal/blank ratio [22] | ECL signal/blank ratio [23] | also measured
1 | B1 | 190 | 0.67 |  |  |  |  |  |  |  |  | 
2 | B2 | 453 | 0.47 |  |  |  |  |  |  |  |  | 
3 | B3 | 334 | 0.77 |  |  |  |  |  |  |  |  | 
4 | B4 | 457 | 0.64 |  |  |  |  |  |  |  |  | 
5 | B5 | 136 | 0.09 |  |  |  |  |  |  |  |  | 
6 | B6 |  |  |  |  |  |  |  |  |  |  | ECL signal [3]: 197000; ECL signal [4]: 397; ECL signal [5]: 347; ECL signal [6]: 78400; ECL signal [7]: 354; ECL signal [8]: 383; ECL signal [9]: 347; Signal/Noise [10]: 694
7 | B7 |  |  |  |  |  |  |  |  |  |  | ECL signal [11]: 439; ECL signal [12]: 508; ECL signal [13]: 109000; ECL signal [14]: 537; ECL signal [15]: 512
8 | B8 |  |  | 1.7 | 1.9 | 1.8 | 1.3 | 1 | 1.9 | 6.9 | 1.5 | 
9 | B9 |  |  | 2.1 | 1.6 | 1.6 | 1.3 | 1.4 |  | 4.8 | 1.8 | 
10 | B10 |  |  | 1.5 | 1.4 | 1.3 | 0.9 | 0.8 | 2.9 | 9.3 | 1.1 | 
11 | B11 |  |  | 2.1 | 1.8 | 1.9 | 1.2 | 1.3 | 5 | 30.1 | 1.7 | 
12 | B12 |  |  |  |  | 2 | 1.8 | 1.2 | 6.2 | 38.8 | 2.2 | 
